Measured values reported in publication PMC3147155.

Biological target: I95E mutant of the PAS-A domain of the Bacillus subtilis protein KinA (Bacillus subtilis)
Assay: AUC

log(Ka): 3.96
log(k−) (log of koff): -3.7
stoichiometry N: 2
Substance: I95E mutant of the PAS-A domain of the Bacillus subtilis protein KinA (domain or fragment)
